The values that follow come from patent US20230322953A1 (HARBOUR BIOMED SHANGHAI, published 2023).

A word on the EC50: it is the midpoint of the concentration-response curve. One may read the IC50 as the concentration that gives 50% inhibition.

Assay [1] deals with T1, cynomolgus monkey BCMA (ACRO Biosystems, #BCA-C82F4) (cynomolgus monkey, UniProt A0A2K5UD97 1-53).
T1 construct: bought; also called cyBCMA.Fc
As to the kind of experiment: BLI, Octet Red96e. A general note: BLI is a label-free optical method that tracks binding on a fibre tip over time.

Assay [2] has as its target T2, cynomolgus monkey BCMA on cells (HEK293T/cyno BCMA) (cynomolgus monkey, UniProt A0A2K5UD97 1-183).
T2 construct: whole, on cells
As to the kind of experiment: FACS, HEK293T/cyno BCMA cells.

Assay [3] deals with T3, human CTLA4 on CHO-K1/hCTLA4 cells (human, UniProt P16410 36-223).
T3 construct: whole, on cells; CHO-K1 cell line highly expressing human CTLA4; also called human CTLA4 cell
T3 sequence (P16410 36-223): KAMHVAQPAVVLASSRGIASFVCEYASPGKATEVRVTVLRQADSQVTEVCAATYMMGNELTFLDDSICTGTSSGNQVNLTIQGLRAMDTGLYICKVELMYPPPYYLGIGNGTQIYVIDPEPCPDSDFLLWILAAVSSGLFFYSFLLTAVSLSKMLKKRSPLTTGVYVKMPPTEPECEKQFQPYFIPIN
As to the kind of experiment: flow cytometry on CHO-K1/hCTLA4 cells, Experiment 1. (In flow cytometry, cells or beads pass a laser one at a time.)

For assay [4], the target named is T3, human CTLA4 on CHO-K1/hCTLA4 cells. As to the kind of experiment: flow cytometry on CHO-K1/hCTLA4 cells, Experiment 2.
The target is the same in assay [5]. As to the kind of experiment: flow cytometry on CHO-K1/hCTLA4 cells, Experiment 3.
Assay [6] deals with T4, biotinylated human CTLA4-Fc protein (ACRO Biosystems, #CT4-H82F3) (human, UniProt P16410 36-161, biotinylated).
T4 construct: Bought protein; also called human CTLA4 protein
T4 sequence (P16410 36-161 limits assumed): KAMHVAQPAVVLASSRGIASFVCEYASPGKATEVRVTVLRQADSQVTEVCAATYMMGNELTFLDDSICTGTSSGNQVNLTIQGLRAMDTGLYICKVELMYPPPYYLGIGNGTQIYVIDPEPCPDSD
As to the kind of experiment: competition ELISA: coated human B7-1-Fc, biotinylated human CTLA4-Fc, Experiment 1. Background: An ELISA detects its analyte on a solid surface through an enzyme-linked reagent.

Assay [7] deals with T4, biotinylated human CTLA4-Fc protein …. As to the kind of experiment: competition ELISA: coated human B7-1-Fc, biotinylated human CTLA4-Fc, Experiment 2.
Assay [8] concerns the target T3, human CTLA4 on CHO-K1/hCTLA4 cells. As to the kind of experiment: flow cytometry competition: biotinylated human B7-1-Fc on CHO-K1/hCTLA4 cells, Experiment 1.
The target is the same in assay [9]. As to the kind of experiment: flow cytometry competition: biotinylated human B7-1-Fc on CHO-K1/hCTLA4 cells, Experiment 2.

T1 sequence (A0A2K5UD97 entry or part of it): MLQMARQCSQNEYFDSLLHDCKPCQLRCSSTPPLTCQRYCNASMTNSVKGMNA
T2 sequence (A0A2K5UD97 entry or part of it): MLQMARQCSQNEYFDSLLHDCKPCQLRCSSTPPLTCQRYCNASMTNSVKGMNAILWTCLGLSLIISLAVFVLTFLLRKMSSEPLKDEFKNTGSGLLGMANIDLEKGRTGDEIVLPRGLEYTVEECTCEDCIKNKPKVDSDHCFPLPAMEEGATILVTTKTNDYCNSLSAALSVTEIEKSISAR

B1: PR002199, BCMA×CD3 bispecific antibody derived from WO2019133761A1 (bispecific antibody, human IgG1, kappa, L234A L235A)
chain 1: not shown
chain 2: EVQLVESGGGLVQPGRSLRLSCAASGFTFDDYAMHWVRQAPGKGLEWVSGISWNSGSIGYADSVKGRFTISRDNAKNSLYLQMNSLRAEDTALYYCAKDSRGYGDYRLGGAYWGQGTLVTVSSASTKGPSVFPLAPSSKSTSGGTAALGCLVKDYFPEPVTVSWNSGALTSGVHTFPAVLQSSGLYSLSSVVTVPSSSLGTQTYICNVNHKPSNTKVDKKVEPKSCDKTHTCPPCPAPEAAGGPSVFLFPPKPKDTLMISRTPEVTCVVVDVSHEDPEVKFNWYVDGVEVHNAKTKPREEQYNSTYRVVSVLTVLHQDWLNGKEYKCKVSNKALGAPIEKTISKAKGQPREPQVYTLPPCREEMTKNQVSLWCLVKGFYPSDIAVEWESNGQPENNYKTTPPVLDSDGSFFLYSKLTVDKSRWQQGNVFSCSVMHEALHNHYTQKSLSLSPGK
chain 3: EVQLLESGGGLVQPGGSLRLSCAASGFTVSSYGMSWVRQAPGKGPEWVSGIRGSDGSTYYADSVKGRFTISRDNSKNTLYLQMNSLRAEDTAVYYCAKQGENDGPFDHRGQGTLVTVSSGGGGSEVQLLESGGGLVQPGGSLRLSCAASGFTVSSYGMSWVRQAPGKGPEWVSGIRGSDGSTYYADSVKGRFTISRDNSKNTLYLQMNSLRAEDTAVYYCAKQGENDGPFDHRGQGTLVTVSSASEPKSSDKTHTCPPCPAPEAAGGPSVFLFPPKPKDTLMISRTPEVTCVVVDVSHEDPEVKFNWYVDGVEVHNAKTKPREEQYNSTYRVVSVLTVLHQDWLNGKEYKCKVSNKALGAPIEKTISKAKGQPREPQVCTLPPSREEMTKNQVSLSCAVKGFYPSDIAVEWESNGQPENNYKTTPPVLDSDGSFFLVSKLTVDKSRWQQGNVFSCSVMHEALHNHYTQKSLSLSPGK
notes: also called positive control 2
Regarding B1, the binding result in assay [1] and in assay [2] was “no binding” in each case.

B2: Anti-CTLA4 heavy-chain antibody CL5v3, hIgG1 (antibody, V domains shown)
VH: EVQLVESGGGLIQPGGSLRLSCAVSGFTVSKNYMSWVRQAPGKGLEWVSVVYSGGSKTYADSVKGRFTISRDNSKNTLYLQMNSLRAEDTAVYYCARAVPHSPSSFDIWGQGTMVTVSS
notes: Heavy-chain-only antibody (HCAb), no light chain; parent of the CTLA4 end of the HER2xCTLA4 bispecifics; also called PR000184
Take B2: the EC50 in assay [3] is 1.59 nM; in assay [4], 1.79 nM; in assay [5] it was 3.05 nM. Besides, the “Maximum MFI” value in [3] worked out at 214 MFI; in assay [4] it was 1080 MFI. In addition, the IC50 in [6] came to 2.46 nM; in [7] it was 1.69 nM; in [8], 1.69 nM; in assay [9] it was 0.239 nM. In [8], this molecule yielded a Maximum inhibition rate of 99.6%.
